Data on one molecule can be found in PMC11499264, “RNA m5C oxidation by TET2 regulates chromatin state and leukaemogenesis”.

This data set has as its target T1, MBD6 MBD domain-MBP-His (Homo sapiens, UniProt Q96DN6 1-100).
T1 sequence: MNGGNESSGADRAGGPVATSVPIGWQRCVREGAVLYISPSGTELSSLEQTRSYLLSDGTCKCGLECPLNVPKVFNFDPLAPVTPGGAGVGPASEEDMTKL
Kind of data set: EMSA; 0-100 uM protein; preferred over C and hm5C probes; 100 nM FAM probe, 20 mM HEPES pH 7.5, 40 mM KCl, 10 mM MgCl2, 0.1% Triton X-100, 10% glycerol, 1x RNaseOUT, on ice 30 min; 10% TBE gel, 0.5x TBE, 4 C. Particulars: protein: recombinant; tags: C-terminal MBP-6xHis; label: 5' 6-FAM; single strand. In general terms: Mobility shift assays separate free from complexed probe on a gel.

On to TATGACCTGCGGTATGACCTGCGGTATGACCTGCGG (ssDNA, 5-methyl-dC at positions 7, 19, 31) [p1-m5C (ss)], for which the binding result is given as “binds”.
